Results as given in US20200079850A1 (SUTRO BIOPHARMA, published 2020).

T1: human LAG3-Fc (R&D Systems #2319-L3) (human, UniProt P18627 23-450)
T1 construct: Bought protein; also called Human LAG3 (Biacore)
T1 sequence: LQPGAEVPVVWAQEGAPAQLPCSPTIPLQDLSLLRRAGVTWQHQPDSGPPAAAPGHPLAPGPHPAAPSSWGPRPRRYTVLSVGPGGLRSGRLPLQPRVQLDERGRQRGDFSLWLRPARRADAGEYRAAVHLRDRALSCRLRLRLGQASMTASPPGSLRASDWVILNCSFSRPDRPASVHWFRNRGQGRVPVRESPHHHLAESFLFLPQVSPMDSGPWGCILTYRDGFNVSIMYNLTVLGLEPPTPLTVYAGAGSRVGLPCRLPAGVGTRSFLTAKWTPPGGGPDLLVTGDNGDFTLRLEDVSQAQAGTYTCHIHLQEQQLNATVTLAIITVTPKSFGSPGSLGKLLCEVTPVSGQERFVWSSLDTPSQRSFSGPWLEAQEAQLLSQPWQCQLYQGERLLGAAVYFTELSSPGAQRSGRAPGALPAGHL

T2: recombinant human LAG3 protein (rhLAG3), HIS-tagged (ACRO) or biotinylated (R&D Cat #2319-C3) (human, UniProt P18627 23-450, biotinylated in part of the assays)
T2 sequence: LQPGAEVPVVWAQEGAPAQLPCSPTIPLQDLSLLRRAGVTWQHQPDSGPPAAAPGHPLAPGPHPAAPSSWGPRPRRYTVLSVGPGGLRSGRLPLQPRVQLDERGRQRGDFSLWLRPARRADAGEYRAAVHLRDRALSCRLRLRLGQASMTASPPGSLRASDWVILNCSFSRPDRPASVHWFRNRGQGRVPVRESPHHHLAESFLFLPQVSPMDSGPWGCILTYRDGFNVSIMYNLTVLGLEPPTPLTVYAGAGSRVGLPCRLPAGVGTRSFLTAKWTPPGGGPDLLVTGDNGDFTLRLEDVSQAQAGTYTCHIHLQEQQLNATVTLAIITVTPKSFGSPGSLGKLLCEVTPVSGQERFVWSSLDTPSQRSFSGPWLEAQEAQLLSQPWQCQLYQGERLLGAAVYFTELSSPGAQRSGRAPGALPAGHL

T3: human LAG3 expressed on the cell surface (CHO-LAG3, 293T-LAG3 cells) (human, UniProt P18627 23-525)
T3 construct: Stably transfected CHO or HEK293T cells; also called Human LAG3 (CHO); Human LAG3 (293T)
T3 sequence: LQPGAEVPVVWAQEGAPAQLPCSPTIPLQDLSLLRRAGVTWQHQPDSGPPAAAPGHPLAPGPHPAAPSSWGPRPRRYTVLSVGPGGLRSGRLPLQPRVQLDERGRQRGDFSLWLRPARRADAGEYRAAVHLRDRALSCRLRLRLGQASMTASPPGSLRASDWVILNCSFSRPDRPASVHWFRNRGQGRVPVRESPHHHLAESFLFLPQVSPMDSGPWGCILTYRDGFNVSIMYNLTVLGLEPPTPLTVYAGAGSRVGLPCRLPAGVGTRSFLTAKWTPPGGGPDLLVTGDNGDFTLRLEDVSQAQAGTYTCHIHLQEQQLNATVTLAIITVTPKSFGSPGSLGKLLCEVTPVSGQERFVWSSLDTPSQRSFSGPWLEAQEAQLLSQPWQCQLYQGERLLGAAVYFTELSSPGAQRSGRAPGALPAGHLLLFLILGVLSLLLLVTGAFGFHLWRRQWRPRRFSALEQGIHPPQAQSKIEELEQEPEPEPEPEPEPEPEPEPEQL


Tests used:
[1] = biological target: T1, human LAG3-Fc (R&D Systems #2319-L3); assay: SPR (Biacore), antibody captured by anti-Flag, LAG3-Fc as analyte, 25 C
Method: Anti-Flag M2 IgG (Sigma-Aldrich # F9291) was immobilized onto a CMS chip (GE Life Sciences) using amine coupling chemistry (from Amine Coupling Kit, GE Life Sciences). The immobilization steps were carried out at a flow rate of 25 μL/min in 1×HBS-EP+ buffer (GE Life Sciences; 10×Stock diluted before use). The sensor surfaces were activated for 7 min with a mixture of NHS (0.05 M) and EDC (0.2 M). The Anti-Flag M2 IgG was injected over all 4 flow cells at a concentration of 25 μg/mL in 10 mM sodium acetate, pH 4.5, for 7 min. Ethanolamine (1 M, pH 8.5) was injected for 7 min to block any remaining activated groups. An average of 12,000 response units (RU) of capture antibody was immobilized on each flow cell.
Off-rate and kinetic binding experiments were performed at 25° C. using 1×HBS-EP+buffer. Test and control antibodies were injected over the Anti-Flag surface at concentrations of 5-10 μg/mL for 12 seconds at a flow rate of 10 μL/min on flow cells 2, 3 and 4, followed by a buffer wash for 30 seconds at the same flow rate. Kinetic characterization of antibody samples was carried out with a single concentration of antigen (for off-rate ranking) or a dilution series of antigen (for kinetic characterization) and 1 injection of 0 nM antigen. After capturing ligand (antibody) on the anti-Flag surface, the analyte (human LAG3-Fc, R&D Systems #2319-L3; or cynomolgus LAG3-Fc, accession # NC 022282.1) was bound at 50, 25, 12.5, 6.25, and 0 nM for 180 seconds, followed by a 600 second dissociation phase at a flow rate of 50 μl/min Between each ligand capture and analyte binding cycle, regeneration was carried out using 2 injections of 10 mM glycine pH 2.0 for 30 seconds at 30 μL/min, followed by a 30 second buffer wash step.
The data were fit with the Biacore T200 Evaluation software, using a 1:1 Langmuir binding model. KD (affinity, nM) was determined as a ratio of the kinetic rate constants calculated from the fits of the association and dissociation phases.

[2] = biological target: T2, recombinant human LAG3 protein …; assay: flow cytometry competition, rhLAG3 binding to Daudi cells; competitor MHCII
Method: DAUDI cells express high levels of Major Histocompatibility Class II (MHCII) molecules, a natural ligand for LAG3, on the cell surface. DAUDI cells were used to screen for antibodies that inhibit binding of HIS-tagged (ACRO) or biotinylated recombinant human LAG3 protein (rhLAG3) to MHCII expressed on the cell surface.
DAUDI cells were cultured in RPMI w/10% FCS Pen/Strep and Gln and split every 3-4 days at 10^5 cells/ml. Cells were washed 2× with FACS buffer (PBS w/2% FCS), […] at a final concentration of 1×10⁶ cells/ml and seeded at 100 μl per well on 96 well polypropylene plates. Plates were spun at 1500 rpm for 5 minutes and cell pellets were suspended in 50 μl FACS buffer containing 8 point 1:3 dilutions (2× concentrated) of anti-LAG3 antibody variants, starting from high concentration of −600 nM. 50 μl FACS buffer containing 10-20 μg/ml of the HIS-tagged rhLAG3 protein or 40 μg/ml of the biotinylated rhLAG3 protein were then added to the cells. Cell were then incubated in ice for 1 hr, washed with FACS buffer and incubated for 1 hr in ice with 50 μl FACS buffer containing 2 μg/ml R-Phycoerythrin-conjugated Streptavidin (eBiosciences) or 1 μg/ml R-Phycoerythrin-conjugated anti-HIS IgG (Abcam). Cell were washed 2× with FACS buffer and fixed for 10 minutes in 200 μl PBS w/2% PFA prior to acquisition.

[3] = biological target: T3, human LAG3 expressed on the cell …; assay: flow cytometry, 293T cells expressing human LAG3
Method: LAG3 antibody variants were tested in a fluorescence-activated cell sorting (FACS) cell-binding assay. Chinese Hamster Ovary (CHO) cells or HEK293T cells stably expressing the human target molecule LAG3 on the cell surface (CHO-LAG3, 293T-LAG3) were used to screen for cell binders by flow cytometry. Parental CHO or 293T cells were used as a negative control to determine background-binding levels. Cells were cultured in RPMI with 10% FCS Penicillin/Streptomycin (or Pen/Strep) and glutamine (or Gln) and split every 3-4 days at 10⁵ cells/ml.
A mix of parental CHO cells and CHO-LAG3 cells (or 293T and 293T-LAG3 cells) was prepared as follows: Parental CHO cells were washed 2× in PBS then incubated in PBS containing 1 nM CellTrace™ Oregon Green488® (Life Technologies) at 37° C. for 30 minutes. […] Parental CHO cells and CHO-LAG3 cells were then mixed to obtain a 1:1 cell suspension and seeded at 100 μl per well on 96 well polypropylene plates. Plates were spun at 1500 rpm for 5 minutes and cell pellets were suspended in 50 μl FACS buffer containing 6-12 point dilutions of anti-LAG3 variants starting from concentrations of ˜100-200 nM antibody, dispensed using BioMekFX (Beckman Coulter). Cells were then incubated on ice for 1 hr, washed with FACS buffer and incubated for 1 hr on ice with 50 μl FACS buffer containing 2.5 μg/ml R-Phycoerythrin-conjugated Goat Anti-Human IgG (Jackson ImmunoResearch) or AF647-conjugated Goat Anti-mouse IgG (Life Technologies) dispensed using BioMekFX (Beckman Coulter). Cells were then washed 2× with FACS buffer and fixed for 10 minutes in 200 μl PBS with 2% PFA prior to fluorescence detection. Samples were acquired using a Beckton Dickinson LSRII FACS. Mean Fluorescence Intensity of LAG3 antibody binding was analyzed using Tree Star, Inc. FlowJo® software.

Row | Binder | Kd [1] | koff [1] | kon [1] | IC50 [2] | Kd [3]
1 | SRP1627-A11 (scFv, V domains shown) VH: QVQLVQSGAEVKKPGSSVKVSCKASGFNINDYFMHWVRQAPGQGLEWIARIDPWNGDTEYAPKFQGRVTITADESTSTAYMELSSLRSEDTAVYYCGMSDALDYWGQGTLVTVSS VL: DVVMTQSPLSLPVTLGQPASISCKSSQSLLDSDGKTYLNWFQQRPGQSPRRLIYLVSKLDSGVPDRFSGSGSGTDFTLKISRVEAEDVGVYYCWHGINFPQTFGQGTKVEIK | 13.5 nM | 0.00422 s⁻¹ | 312000 M⁻¹ s⁻¹ | 1.6 nM | 0.74 nM
2 | SRP1627-B01 (scFv, V domains shown) VH: QVQLVQSGAEVKKPGSSVKVSCKASGFNITDLYMHWVRQAPGQGLEWIARIDPWNGDTEYAPKFQGRATITADESTSTAYMELSSLRSEDTAVYYCIASEMVDYWGQGTLVTVSS VL: DVVMTQSPLSLPVTLGQPASISCKSSQSLLDSDGKTYLNWFQQRPGQSPRRLIYLVSKLDSGVPDRFSGSGSGTDFTLKISRVEAEDVGVYYCSTYSHFPQTFGQGTKVEIK | 14.7 nM | 0.0152 s⁻¹ | 1.04e+06 M⁻¹ s⁻¹ | 0.4 nM | 0.19 nM
3 | h5G11-2 (scFv, V domains shown) VH: QVQLVQSGAEVKKPGSSVKVSCKASGFNIKDYYMHWVRQAPGQGLEWIAWIDPENGDTEYAPKFQGRVTITADESTSTAYMELSSLRSEDTAVYYCNAPDALDYWGQGTLVTVSS VL: DVVMTQSPLSLPVTLGQPASISCKSSQSLLDSDGKTYLNWFQQRPGQSPRRLIYLVSKLDSGVPDRFSGSGSGTDFTLKISRVEAEDVGVYYCWQGSHFPQTFGQGTKVEIK | 863 nM | 0.0023 s⁻¹ | 2670 M⁻¹ s⁻¹ |  | 78 nM
4 | SRP1627-A02 (scFv, V domains shown) VH: QVQLVQSGAEVKKPGSSVKVSCKASGFNINDYFMHWVRQAPGQGLEWIARIDPWNGDTEYAPKFQGRVTITADESTSTAYMELSSLRSEDTAVYYCGMSDALDYWGQGTLVTVSS VL: DVVMTQSPLSLPVTLGQPASISCKSSQSLLDSDGKTYLNWFQQRPGQSPRRLIYLVSKLDSGVPDRFSGSGSGTDFTLKISRVEAEDVGVYYCSHGNPVPQTFGQGTKVEIK | 43.3 nM | 0.071 s⁻¹ | 1.64e+06 M⁻¹ s⁻¹ | 1.7 nM | 0.97 nM
5 | SRP1496-B08 (antibody, V domains shown) VH: EVQLVESGGGLVQPGGSLRLSCAASGFNINDTYIHWVRQAPGKGLEWVGIIDPYDGATDYADSVKGRFTISADTSKNTAYLQMNSLRAEDTAVYYCAREIFGFYWNPFDYWGQGTLVTVSS VL: not shown | 21.3 nM | 0.0279 s⁻¹ | 1.31e+06 M⁻¹ s⁻¹ | 28.6 nM | 39.4 nM
6 | SRP1496-A04 (antibody, V domains shown) VH: EVQLVESGGGLVQPGGSLRLSCAASGFNINDTYIHWVRQAPGKGLEWVGIIDPYDGATDYADSVKGRFTISADTSKNTAYLQMNSLRAEDTAVYYCAREIFGFYWNPFDYWGQGTLVTVSS VL: not shown | 15.2 nM | 0.0196 s⁻¹ | 1.29e+06 M⁻¹ s⁻¹ | 55.8 nM | 35 nM
7 | SRP1496-A03 (antibody, V domains shown) VH: EVQLVESGGGLVQPGGSLRLSCAASGFNINDTYIHWVRQAPGKGLEWVGIIDPYDGATDYADSVKGRFTISADTSKNTAYLQMNSLRAEDTAVYYCAREIFGFYWNPFDYWGQGTLVTVSS VL: not shown | 18.9 nM | 0.0234 s⁻¹ | 1.24e+06 M⁻¹ s⁻¹ | 41.3 nM | 40.6 nM
8 | SRP1648-E02 (antibody, V domains shown) VH: EVQLVESGGGLVQPGGSLRLSCAASGFNINDNYIHWVRQAPGKGLEWVGIIDPYDGFTAYADSVKGRFTISADTSKNTAYLQMNSLRAEDTAVYYCARESIGFYLNPFDYWGQGTLVTVSS VL: not shown | 2.27 nM | 0.122 s⁻¹ | 5.35e+07 M⁻¹ s⁻¹ | 4.1 nM | 
9 | SRP1648-B07 (antibody, V domains shown, IgG scaffold with human constant domains) VH: EVQLVESGGGLVQPGGSLRLSCAASGFNIADTFIHWVRQAPGKGLEWVGIIDPYDGDTDYADSVKGRFTISADTSKNTAYLQMNSLRAEDTAVYYCAREILGFYWNPFDYWGQGTLVTVSS VL: not shown | 2.46 nM | 0.0275 s⁻¹ | 1.12e+07 M⁻¹ s⁻¹ | 4.5 nM | 
